The values that follow come from patent US20240270821A1, “GIP/GLP1/GCG TRI-RECEPTOR AGONISTS AND USES THEREOF” (priority 2023, published 2024).

Holding throughout (assay): cell-based or functional assay
One test deals with hGLP-1R (Homo sapiens, UniProt P43220).
The target of test [1] is human glucagon receptor (human) (UniProt P47871).
In test [2] the target is T1, human GIP receptor (human) (UniProt P48546).
T1 sequence (looked up): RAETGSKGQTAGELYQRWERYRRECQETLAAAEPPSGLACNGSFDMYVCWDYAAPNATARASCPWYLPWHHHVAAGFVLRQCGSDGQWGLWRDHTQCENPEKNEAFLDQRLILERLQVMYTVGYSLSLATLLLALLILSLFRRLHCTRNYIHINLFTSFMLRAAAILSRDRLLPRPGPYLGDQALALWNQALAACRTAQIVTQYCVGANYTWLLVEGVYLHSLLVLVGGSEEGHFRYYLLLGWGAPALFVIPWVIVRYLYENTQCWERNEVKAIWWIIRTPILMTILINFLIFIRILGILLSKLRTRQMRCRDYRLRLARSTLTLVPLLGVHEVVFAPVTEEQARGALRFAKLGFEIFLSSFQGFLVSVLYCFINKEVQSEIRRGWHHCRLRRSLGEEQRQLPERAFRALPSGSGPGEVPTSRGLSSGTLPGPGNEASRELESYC

hGLP-1R, sequence (P43220 24-463): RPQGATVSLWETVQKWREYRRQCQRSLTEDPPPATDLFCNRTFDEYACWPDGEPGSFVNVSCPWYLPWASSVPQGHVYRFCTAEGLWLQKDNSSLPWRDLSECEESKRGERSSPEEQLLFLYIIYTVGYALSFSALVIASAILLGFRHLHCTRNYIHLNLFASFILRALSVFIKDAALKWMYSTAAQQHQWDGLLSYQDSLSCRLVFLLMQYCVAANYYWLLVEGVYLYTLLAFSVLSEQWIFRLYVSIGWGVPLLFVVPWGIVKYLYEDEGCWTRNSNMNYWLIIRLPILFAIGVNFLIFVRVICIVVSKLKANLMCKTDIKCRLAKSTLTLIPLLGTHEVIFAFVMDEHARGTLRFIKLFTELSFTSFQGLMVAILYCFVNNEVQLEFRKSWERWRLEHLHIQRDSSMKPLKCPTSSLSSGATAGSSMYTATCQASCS
human glucagon receptor (human), sequence (P47871 26-477): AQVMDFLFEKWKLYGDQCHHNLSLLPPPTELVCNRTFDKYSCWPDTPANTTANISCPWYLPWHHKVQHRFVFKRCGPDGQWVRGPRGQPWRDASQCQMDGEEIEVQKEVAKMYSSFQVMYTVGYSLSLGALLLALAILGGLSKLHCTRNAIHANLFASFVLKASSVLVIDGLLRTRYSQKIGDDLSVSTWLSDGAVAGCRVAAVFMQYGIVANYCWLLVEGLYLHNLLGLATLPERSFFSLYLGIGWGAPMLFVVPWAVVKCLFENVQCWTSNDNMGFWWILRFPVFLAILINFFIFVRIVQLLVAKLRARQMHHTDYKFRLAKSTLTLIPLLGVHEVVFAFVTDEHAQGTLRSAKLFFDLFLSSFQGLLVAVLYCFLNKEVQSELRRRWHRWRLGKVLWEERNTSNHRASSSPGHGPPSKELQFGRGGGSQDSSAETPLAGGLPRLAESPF

B1: Example 1173 (peptide)
chain: YXQGTXTSDXXIXLDXKAQXEFIEXLIEGGPSSGEPPPSGSE
modifications: (γGlu)2-C18 diacid on Lys; non-natural residues; amide; synthetic construct; SITE 2: note = 2-Aminoisobutyric Acid; SITE 6: note = alpha-methyl-L-phenylalanine; SITE 10: note = …; SITE 11: note = alpha-methyl-L-serine; SITE 13: note = alpha-methyl-leucine; SITE 16: note = L-ornithine; SITE 17: note = Lysine is chemically modified th
Take B1: the Relative cAMP EC50 in the test with hGLP-1R worked out at 0.604 nM; in test [1], 2.31 nM; in test [2] it was 0.00943 nM. Further, the cAMP Rel EC50 (in the presence of 1% HSA) with hGLP-1R stood at 59.1 nM; in test [1], 254 nM; in test [2], 0.764 nM.

B2: Example 1178 (peptide)
chain: YXQGTXTSDXXIXLDXKAQXEFIEXLIEGGPSSGAPPPSGSE
modifications: non-natural residues; AEEA-(γGlu)2-C18 diacid on Lys; amide; synthetic construct; SITE 2: note = 2-Aminoisobutyric Acid; SITE 6: note = alpha-methyl-2-fluoro-L-phenylalanine; SITE 10: note = 3-(4-Pyridyl)-L-alanine; SITE 11: note = alpha-methyl-L-serine; SITE 13: note = alpha-methyl-leucine; SITE 16: note = L-ornithine; SITE 17: note = Lysine is chemically mo
In the case of B2, the cAMP Rel EC50 (in the presence of 1% HSA) in the test with hGLP-1R came to 39 nM; in test [1] it was 270 nM; in test [2], 0.544 nM.

B3: Example 1179 (peptide)
chain: YXQGTXTSDXXIXLDXKAQXEFIEXLIEGGPSSGEPPPSGSE
modifications: non-natural residues, C-terminal amide, acylated Lys with fatty diacid; synthetic construct; SITE 2: note = 2-Aminoisobutyric Acid; SITE 6: note = alpha-methyl-2-fluoro-L-phenylalanine; SITE 10: note = 3-(4-Pyridyl)-L-alanine; SITE 11: note = alpha-methyl-L-serine; SITE 13: note = alpha-methyl-leucine; SITE 16: note = L-ornithine; SITE 17: note = Lysine is chemically mo
In the case of B3, the Relative cAMP EC50 stood at 0.652 nM with hGLP-1R, 2.87 nM in test [1] and 0.0102 nM in test [2]. Further, the cAMP Rel EC50 (in the presence of 1% HSA) with hGLP-1R turned out to be 37.9 nM; in test [1] it was 197 nM; in test [2], 0.58 nM.

B4: Example 1170 (peptide)
chain: YXQGTXTSDXXIXLDXKAQXEFIEXLIEGGPSSGAPPPSGE
modifications: non-natural residues; acylated Lys; C-terminal amide; synthetic construct; SITE 2: note = 2-Aminoisobutyric Acid; SITE 6: note = alpha-methyl-L-phenylalanine; SITE 10: note = 3-(4-Pyridyl)-L-alanine; SITE 11: note = alpha-methyl-L-serine; SITE 13: note = alpha-methyl-leucine; SITE 16: note = L-ornithine; SITE 17: note = Lysine is chemically modified th
As for B4, the results for the Relative cAMP EC50 (with hGLP-1R; in test [1]; in test [2]) were 0.395 nM, 2.43 nM and 0.00783 nM, respectively. Also, the values for the cAMP Rel EC50 (in the presence of 1% HSA) (with hGLP-1R; in test [1]; in test [2]) were 50.2 nM, 249 nM and 0.663 nM, respectively.

B5: Example 1189 (peptide)
chain: YXQGTXTSDXXIXLDXKAQXEFIEXLIEGGPPSXXPPPXGS
modifications: non-natural residues, C-terminal amide, acylated Lys with fatty diacid; synthetic construct; SITE 2: note = 2-Aminoisobutyric Acid; SITE 6: note = alpha-methyl-2-fluoro-L-phenylalanine; SITE 10: note = 3-(4-Pyridyl)-L-alanine; SITE 11: note = alpha-methyl-L-serine; SITE 13: note = alpha-methyl-leucine; SITE 16: note = L-ornithine; SITE 17: note = Lysine is chemically mo
Turning to B5, the results for the Relative cAMP EC50 (with hGLP-1R; in test [1]; in test [2]) were 0.292 nM, 1.59 nM and 0.00597 nM, respectively. The figures for the cAMP Rel EC50 (in the presence of 1% HSA) (in the test with hGLP-1R; in test [1]; in test [2]) were 45.4 nM, 248 nM and 0.584 nM, respectively.

B6: Example 1171 (peptide)
chain: YXQGTXTSDXXIXLDXKAQXEFIEXLIEGGPSSGEPPPSGE
modifications: non-natural residues, (γGlu)2-C18 diacid lysine acylation, C-terminal amide; synthetic construct; SITE 2: note = 2-Aminoisobutyric Acid; SITE 6: note = alpha-methyl-L-phenylalanine; SITE 10: note = 3-(4-Pyridyl)-L-alanine; SITE 11: note = alpha-methyl-L-serine; SITE 13: note = alpha-methyl-leucine; SITE 16: note = L-ornithine; SITE 17: note = Lysine is chemically modified th
Take B6: the results for the Relative cAMP EC50 (in the test with hGLP-1R; in test [1]; in test [2]) were 0.529 nM, 2.19 nM and 0.00953 nM, respectively. Besides, the cAMP Rel EC50 (in the presence of 1% HSA) in the test with hGLP-1R was 52.9 nM; in test [1], 233 nM; in test [2] it was 0.718 nM.

B7: Example 1177 (peptide)
chain: YXQGTXTSDXXIXLDXKAQXEFIEXLIEGGPSSGEPPPSGE
modifications: non-natural residues; Lys acylated C18 diacid via AEEA-γGlu2; C-term amide; synthetic construct; SITE 2: note = 2-Aminoisobutyric Acid; SITE 6: note = alpha-methyl-2-fluoro-L-phenylalanine; SITE 10: note = 3-(4-Pyridyl)-L-alanine; SITE 11: note = alpha-methyl-L-serine; SITE 13: note = alpha-methyl-leucine; SITE 16: note = L-ornithine; SITE 17: note = Lysine is chemically mo
In the case of B7, the Relative cAMP EC50 with hGLP-1R turned out to be 0.681 nM; in test [1] it was 4.23 nM; in test [2], 0.0114 nM. Also, the results for the cAMP Rel EC50 (in the presence of 1% HSA) (with hGLP-1R; in test [1]; in test [2]) were 43.6 nM, 156 nM and 0.544 nM, respectively.

B8: Example 1190 (peptide)
chain: YXQGTXTSDXXIXLDXKAQXEFIEXLIEGGPPSXEPPPEGE
modifications: non-natural residues, acylated Lys, C-terminal amide; synthetic construct; SITE 2: note = 2-Aminoisobutyric Acid; SITE 6: note = alpha-methyl-2-fluoro-L-phenylalanine; SITE 10: note = 3-(4-Pyridyl)-L-alanine; SITE 11: note = alpha-methyl-L-serine; SITE 13: note = alpha-methyl-leucine; SITE 16: note = L-ornithine; SITE 17: note = Lysine is chemically mo
Consider B8, for which the Relative cAMP EC50 came out at 0.765 nM in the test with hGLP-1R, 1.68 nM in test [1] and 0.0109 nM in test [2]. The cAMP Rel EC50 (in the presence of 1% HSA) with hGLP-1R turned out to be 77.4 nM; in test [1], 192 nM; in test [2], 0.954 nM.

B9: Example 1176 (peptide)
chain: YXQGTXTSDXXIXLDXKAQXEFIEXLIEGGPSSGAPPPSGE
modifications: non-natural residues; lipidated Lys; C-terminal amide; synthetic construct; SITE 2: note = 2-Aminoisobutyric Acid; SITE 6: note = alpha-methyl-2-fluoro-L-phenylalanine; SITE 10: note = 3-(4-Pyridyl)-L-alanine; SITE 11: note = alpha-methyl-L-serine; SITE 13: note = alpha-methyl-leucine; SITE 16: note = L-ornithine; SITE 17: note = Lysine is chemically mo
Take B9: the cAMP Rel EC50 (in the presence of 1% HSA) in the test with hGLP-1R stood at 43.8 nM; in test [1], 229 nM; in test [2], 0.462 nM.

B10: Example 1185 (peptide)
chain: YXQGTFTSDXXQXLDXKAQXQFIEXLIAXGPSSGAPPPSGGGE
modifications: not fully specified; non-natural residues; Lys acylated with γGlu-C18 diacid; C-terminal amide; synthetic construct; SITE 2: note = 2-Aminoisobutyric Acid; SITE 10: note = 3-(4-Pyridyl)-L-alanine; SITE 11: note = alpha-methyl-L-serine; SITE 13: note = alpha-methyl-leucine; SITE 16: note = L-ornithine; SITE 17: note = Lysine is chemically modified through conjugation of the epsilon-amino group
Take B10: the Relative cAMP EC50 was determined as 0.762 nM with hGLP-1R, 1.64 nM in test [1] and 0.0266 nM in test [2]. The cAMP Rel EC50 (in the presence of 1% HSA) in the test with hGLP-1R was determined as 66.1 nM; in test [1], 206 nM; in test [2], 2.31 nM.

B11: Example 1186 (peptide)
chain: YXQGTFTSDXXQXLDXKAQXQFIQXLIEXGPSSGAPPPSGGGE
modifications: not fully specified; Aib, 4Pal, Me4Pal, alpha-methyl residues, Orn, lipidated Lys, amide; synthetic construct; SITE 2: note = 2-Aminoisobutyric Acid; SITE 10: note = 3-(4-Pyridyl)-L-alanine; SITE 11: note = alpha-methyl-L-serine; SITE 13: note = alpha-methyl-leucine; SITE 16: note = L-ornithine; SITE 17: note = Lysine is chemically modified through conjugation of the epsilon-amino group
B11: the Relative cAMP EC50 came out at 0.594 nM in the test with hGLP-1R, 1.46 nM in test [1] and 0.0404 nM in test [2]. Moreover, the cAMP Rel EC50 (in the presence of 1% HSA) was determined as 52.1 nM with hGLP-1R, 164 nM in test [1] and 3.17 nM in test [2].
